Data on 3 molecules can be found in patent publication US12411143B2, “CD146 and uses thereof as a biomarker and as a therapeutic target in the diagnosis and treatment of fibrosis” (ASSISTANCE PUBLIQUE HÔPITAUX DE MARSEILLE, priority 2018, dated 2025).

The subject of test [1] is chorio-allantoic membrane of the chick embryo. The experiment in a line: Chorio-allantoic membrane assay. Type of test: in vivo. The note with it: 25 ng/ml or 50 ng/ml, 48 h. On the procedure:
D: Yolk sac membrane assays were performed in the presence of 25 ng/ml or 50 ng/ml I5-13-sCD146 and I10-sCD146 for 48 h and compared to control. Representative pictures of 4 different experiments are given.
The chorio-allantoic membrane of the chick embryo assay (CAM) was performed using a previously described protocol (Beckers et al., 1997).
The chorio-allantoic membrane of the chick embryo assay (CAM) was surgically removed and fixed in 10% buffered formaldehyde for 10 hours, dehydrated in graded alcohol, cleared in xylene and embedded in paraffin. 5 μm thick sections were cut in a plane parallel to the surface of the CAM and stained by hematoxylin-eosin which was observed under a light photomicroscope.

The next test has as its system human renal fibroblasts. The experiment in a line: α-SMA and vimentin mRNA expression in primary culture of human renal fibroblasts. Type of test: cell-based. The note with it: sCD146 50 ng/ml, versus control without treatment. As for the experimental part:
The effect of sCD146 (50 ng/ml) was examined on primary culture from human fibroblasts. The effect of 500 ng/ml anti-sCD146 mAb administrated either alone (Ac) or with sCD146.
Results are mean values +/−SE of 3 experiments and expressed as fold change versus control condition without treatment.
The effect of anti-sCD146 treatment was observed on the mRNA expression of α-SMA and vimentin in human renal fibroblast in (in vitro) culture.

For test [2], the system named is CD146 KO mouse model of Systemic Sclerosis. The experiment in a line: CD146 KO mouse model of Systemic Sclerosis induced by bleomycin. As to conditions: bleomycin-treated animals, subcutaneous injection. Type of test: in vivo. As for the experimental part:
C: Dermal thickness was evaluated in a CD146 KO mouse model of Systemic Sclerosis induced by subcutaneous injection of bleomycin. The effect of shed sCD146, I5-13-sCD146 and I10-sCD146 was estimated and the average of 4-5 different animals was given. Representative pictures are also shown.
D: The aspect of the skin is shown in the different CD146 KO mice treated with bleomycin and injected or not with shed sCD146, I10-sCD146 and I5-13-sCD146.
E: Blood vessels examination in skin of animals treated or not with shed sCD146/I10-sCD146/I5-13-sCD146. Vessels are labelled with isolectin B4. Results are representative of 3 different experiments in the 4-5 animals.
Male CD146 KO mice (11-16 weeks) were treated with subcutaneous bleomycin and were compared with littermates WT mice as previously described (Kaspi et al., 2017).
Mice skin sections were fixed in 4% formalin and embedded into paraffin. Dermal thickness was quantified using a stereological method using a Merz grid as previously described (Kaspi et al., 2017).

The subject of a further test is ECFC. The experiment in a line: Permeability of ECFC monolayer to dextran-FITC. Type of test: cell-based, human. The note with it: treatment with recombinant proteins. On the procedure: D: ECFC were transfected with siRNA targeting ADAM10 or Tace and with a control siRNA (C). The permeability of the ECFC monolayer grown on semi-permeable filters was determined using dextran-FITC. Results are the mean values+/−SEM of 3 experiments.
E: ECFC were transfected with plasmid vectors encoding ADAM10 (p-ADAM10) or Tace (p-Tace) and with a control plasmid vector (C). The permeability of the ECFC monolayer grown on semi-permeable filters was determined using dextran-FITC. Results are the mean values+/−SEM of 3 experiments. *: P<0.05, **: P<0.01, ***: P<0.001, experimental vs Control.
ECFC were seeded at 60,000 cells per well on membrane inserts (porosity 1 μm) of a 24-multiwell double chamber system (Multiwell Insert System, BD Biosciences, Le Pont de Claix, France) after siRNA transfection or not. Confluent endothelial monolayers were then incubated for 24 h in EGM-2 medium in the presence or absence of the different forms of sCD146. The FITC-dextran (sigma) was added at the apical surface of the cells and was allowed to migrate for 1.5 h at 37° C. Basolateral FITC-dextran was then measured using a Cytofluor Series 4000 Fluorescence (PerSeptiveBiosystems, Framingham, MA).

As to “sCD146: recombinant human soluble form of CD146 corresponding to the shed sCD146, obtained from Biocytex”, the “vascularisation in chorio-allantoic membrane assay” value in test [1] is reported as “increased vascularisation”. Further, the “α-SMA and vimentin mRNA expression” value in the test on human renal fibroblasts is “increase in α-SMA and vimentin mRNA expression”. Besides, in test [2], the dermal thickness entry is recorded as “reduced this dermal thickness to the value observed in control animals”, the “vascularisation of the skin at macroscopic level” value (shortened to “vascularisation of the skin”) is “increased vascularisation” and the “vessel density in skin (isolectin-b4 labelling)” value (shortened to “vessel density in skin”) is listed as “significantly reversed”.

B1: rh-I10-sCD146: recombinant spliced variant of soluble CD146 containing intron 10, SEQ ID NO: 9 (protein, listed as Homo sapiens)
chain: MGLPRLVCAFLLAACCCCPRVAGVPGEAEQPAPELVEVEVGSTALLKCGLSQSQGNLSHVDWFSVHKEKRTLIFRVRQGQGQSEPGEYEQRLSLQDRGATLALTQVTPQDERIFLCQGKRPRSQEYRIQLRVYKAPEEPNIQVNPLGIPVNSKEPEEVATCVGRNGYPIPQVIWYKNGRPLKEEKNRVHIQSSQTVESSGLYTLQSILKAQLVKEDKDAQFYCELNYRLPSGNHMKESREVTVPVFYPTEKVWLEVEPVGMLKEGDRVEIRCLADGNPPPHFSISKQNPSTREAEEETTNDNGVLVLEPARKEHSGRYECQGLDLDTMISLLSEPQELLVNYVSDVRVSPAAPERQEGSSLTLTCEAESSQDLEFQWLREETGQVLERGPVLQLHDLKREAGGGYRCVASVPSIPGLNRTQLVNVAIFGEALPLGRDQVTPSGVVFKLFDKKPPAALGSSGAEGEAG
For B1, in the test on ECFC, the transendothelial permeability result was “nor treatment with recombinant proteins corresponding to these variants modified transendothelial permeability”. For the same molecule, the “vascularisation in chorio-allantoic membrane assay” value in test [1] is given as “increased vascularisation”. In test [2], the dermal thickness entry was “reduced this dermal thickness to the value observed in control animals”, the “vascularisation of the skin” value was “increased vascularisation” and the “vessel density in skin” value is given as “significantly reversed”.

B2: rh-I5-13-sCD146: recombinant spliced variant of soluble CD146 containing introns 5 and 13, SEQ ID NO: 8 (protein, listed as Homo sapiens)
chain: MVYIVRQFLLYNVSGSVYLDQLIVLLTAKFSILRIAGSRVHHSPFSGHLDGCSFLSLQHSLHTSLDMSRHENVFLGLTLSSKSAGLKGFQLAFVPGLLQGTGGYLDGPLPTPVDNPRVGLEVGLRLSLPPLPPCPGVHIQSSQTVESSGLYTLQSILKAQLVKEDKDAQFYCELNYRLPSGNHMKESREVTVPVFYPTEKVWLEVEPVGMLKEGDRVEIRCLADGNPPPHFSISKQNPSTREAEEETTNDNGVLVLEPARKEHSGRYECQGLDLDTMISLLSEPQELLVNYVSDVRVSPAAPERQEGSSLTLTCEAESSQDLEFQWLREETGQVLERGPVLQLHDLKREAGGGYRCVASVPSIPGLNRTQLVNVAIFGPPWMAFKERKVWVKENMVLNLSCEASGHPRPTISWNVNGTASEQDQDPQRVLSTLNVLVTPELLETGVECTASNDLGKNTSILFLELVNLTTLTPDSNTTTGLSTSTASPHTRANSTSTGKPGLAREQGCARASFLPCPSPESPVQKGE
As to B2, in the test on ECFC, the transendothelial permeability entry is “nor treatment with recombinant proteins corresponding to these variants modified transendothelial permeability”. Moreover, the “vascularisation in chorio-allantoic membrane assay” value in test [1] is “increased vascularisation”. In test [2], the dermal thickness entry is reported as “no significant effect”, the “vascularisation of the skin” value is recorded as “did not” and the “vessel density in skin” value is on record as “no effect”.
